# Test results taken from patent US20190241648A1 (STATEN BIOTECHNOLOGY B V, published 2019).
# Ends that are not written are not given here.
# T1: ApoC3 peptide … D68A (human, not fully specified (bridges); also: cyclic constrained)
# T1 peptide: DKFSEFWDLAPEV
# T2: ApoC3 peptide … F64C (human, not fully specified (bridges); also: cyclic constrained)
# T2 peptide: DKFSECWDLDPEV
# T3: ApoC3 peptide … K60F (human, not fully specified (bridges); also: cyclic constrained)
# T3 peptide: DFFSEFWDLDPEV
# T4: ApoC3 peptide … D59H (human, cyclic constrained)
# T4 peptide: HKFSEFWDLDPEV
# T5: ApoC3 peptide … F64H (human, not fully specified (bridges); also: cyclic constrained)
# T5 peptide: DKFSEHWDLDPEV
# T6: ApoC3 peptide … W65H (human, not fully specified (bridges); also: cyclic constrained, ring type and places not given here)
# T6 peptide: DKFSEFHDLDPEV
# T7: ApoC3 peptide … W65I (human, not fully specified (bridges); also: cyclic constrained, ring type and places not given here)
# T7 peptide: DKFSEFIDLDPEV
# T8: ApoC3 peptide … E70K (human, not fully specified (bridges); also: cyclic constrained)
# T8 peptide: DKFSEFWDLDPKV
# T9: ApoC3 peptide … W65L (human, not fully specified (bridges); also: cyclic constrained, ring type and places not given here)
# T9 peptide: DKFSEFLDLDPEV
# T10: ApoC3 peptide … F61M (human, not fully specified (bridges); also: cyclic constrained)
# T10 peptide: DKMSEFWDLDPEV
# T11: ApoC3 peptide … E70N (human, not fully specified (bridges); also: cyclic constrained)
# T11 peptide: DKFSEFWDLDPNV
# T12: ApoC3 peptide … E70P (human, not fully specified (bridges); also: cyclic constrained)
# T12 peptide: DKFSEFWDLDPPV
# T13: ApoC3 peptide … F64S (human, not fully specified (bridges); also: cyclic constrained)
# T13 peptide: DKFSESWDLDPEV
# T14: ApoC3 peptide … W65S (human, not fully specified (bridges); also: cyclic constrained, ring type and places not given here)
# T14 peptide: DKFSEFSDLDPEV
# T15: ApoC3 peptide … D66S (human, not fully specified (bridges); also: cyclic constrained)
# T15 peptide: DKFSEFWSLDPEV
# T16: ApoC3 peptide … D59T (human, cyclic constrained)
# T16 peptide: TKFSEFWDLDPEV
# T17: ApoC3 peptide … W65T (human, not fully specified (bridges); also: cyclic constrained, ring type and places not given here)
# T17 peptide: DKFSEFTDLDPEV
# T18: ApoC3 peptide … W65V (human, not fully specified (bridges); also: cyclic constrained, ring type and places not given here)
# T18 peptide: DKFSEFVDLDPEV
# T19: ApoC3 peptide … F61W (human, not fully specified (bridges); also: cyclic constrained)
# T19 peptide: DKWSEFWDLDPEV
# T20: ApoC3 peptide … D66W (human, not fully specified (bridges); also: cyclic constrained)
# T20 peptide: DKFSEFWWLDPEV
# T21: ApoC3 peptide … L67W (human, not fully specified (bridges); also: cyclic constrained)
# T21 peptide: DKFSEFWDWDPEV
# T22: ApoC3 peptide … D59Y (human, not fully specified (bridges); also: cyclic constrained)
# T22 peptide: YKFSEFWDLDPEV
# T23: ApoC3 peptide … F64Y (human, not fully specified (bridges); also: cyclic constrained)
# T23 peptide: DKFSEYWDLDPEV
# Experiments:
# Assay in all cases: peptide microarray
# ApoC3 peptide … W65A = ApoC3 peptide … W65A (human, cyclic constrained)
# Procedure: (§1) F64 was completely variable.
# (§2) Pre: staining of one of the ApoC3 peptide microarrays was done with the secondary antibody goat anti-human IgG (Fe) DyLight680 (1:5000) and control antibody mouse monoclonal anti-HA (12CA5) DyLight800 (1:2000) to investigate background interactions of the secondary antibody with the antigen-derived peptides that could interfere with the main assays. Subsequent incubation of other ApoC3 peptide microarrays with antibody samples was followed by staining with secondary and control antibodies as well as read-out at scanning intensities of 7/7 (red/green). The additional HA peptides framing the peptide arrays were stained as internal quality control to confirm the assay quality and the peptide microarray integrity.
# ApoC3 peptide … D68A = target: T1, ApoC3 peptide … D68A
# Procedure: as §1, §2
# ApoC3 peptide … S62C = ApoC3 peptide … S62C (human, cyclic constrained)
# Procedure: as §1, §2
# ApoC3 peptide … F64C = target: T2, ApoC3 peptide … F64C
# Procedure: as §1, §2
# ApoC3 peptide … S62D = ApoC3 peptide … S62D (human, cyclic constrained)
# Procedure: as §1, §2
# ApoC3 peptide … V71D = ApoC3 peptide … V71D (human, cyclic constrained)
# Procedure: as §1, §2
# ApoC3 peptide … S62E = ApoC3 peptide … S62E (human, cyclic constrained)
# Procedure: as §1, §2
# ApoC3 peptide … W65E = ApoC3 peptide … W65E (human, cyclic constrained)
# Procedure: as §1, §2
# ApoC3 peptide … K60F = target: T3, ApoC3 peptide … K60F
# Procedure: as §1, §2
# ApoC3 peptide … D59H = target: T4, ApoC3 peptide … D59H
# Procedure: as §1, §2
# ApoC3 peptide … S62H = ApoC3 peptide … S62H (human, cyclic constrained)
# Procedure: as §1, §2
# ApoC3 peptide … F64H = target: T5, ApoC3 peptide … F64H
# Procedure: as §1, §2
# ApoC3 peptide … W65H = target: T6, ApoC3 peptide … W65H
# Procedure: as §1, §2
# ApoC3 peptide … V71H = ApoC3 peptide … V71H (human, cyclic constrained)
# Procedure: as §1, §2
# ApoC3 peptide … W65I = target: T7, ApoC3 peptide … W65I
# Procedure: as §1, §2
# ApoC3 peptide … E70K = target: T8, ApoC3 peptide … E70K
# Procedure: as §1, §2
# ApoC3 peptide … V71K = ApoC3 peptide … V71K (human, cyclic constrained)
# Procedure: as §1, §2
# ApoC3 peptide … W65L = target: T9, ApoC3 peptide … W65L
# Procedure: as §1, §2
# ApoC3 peptide … F61M = target: T10, ApoC3 peptide … F61M
# Procedure: as §1, §2
# ApoC3 peptide … E63M = ApoC3 peptide … E63M (human, cyclic constrained)
# Procedure: as §1, §2
# ApoC3 peptide … V71M = ApoC3 peptide … V71M (human, cyclic constrained)
# Procedure: as §1, §2
# ApoC3 peptide … E70N = target: T11, ApoC3 peptide … E70N
# Procedure: as §1, §2
# ApoC3 peptide … E70P = target: T12, ApoC3 peptide … E70P
# Procedure: as §1, §2
# ApoC3 peptide … E63R = ApoC3 peptide … E63R (human, cyclic constrained)
# Procedure: as §1, §2
# ApoC3 peptide … P69R = ApoC3 peptide … P69R (human, cyclic constrained)
# Procedure: as §1, §2
# ApoC3 peptide … F64S = target: T13, ApoC3 peptide … F64S
# Procedure: as §1, §2
# ApoC3 peptide … W65S = target: T14, ApoC3 peptide … W65S
# Procedure: as §1, §2
# ApoC3 peptide … D66S = target: T15, ApoC3 peptide … D66S
# Procedure: as §1, §2
# ApoC3 peptide … D59T = target: T16, ApoC3 peptide … D59T
# Procedure: as §1, §2
# ApoC3 peptide … W65T = target: T17, ApoC3 peptide … W65T
# Procedure: as §1, §2
# ApoC3 peptide … W65V = target: T18, ApoC3 peptide … W65V
# Procedure: as §1, §2
# ApoC3 peptide … F61W = target: T19, ApoC3 peptide … F61W
# Procedure: as §1, §2
# ApoC3 peptide … E63W = ApoC3 peptide … E63W (human, cyclic constrained)
# Procedure: as §1, §2
# ApoC3 peptide … D66W = target: T20, ApoC3 peptide … D66W
# Procedure: as §1, §2
# ApoC3 peptide … L67W = target: T21, ApoC3 peptide … L67W
# Procedure: as §1, §2
# ApoC3 peptide … D59Y = target: T22, ApoC3 peptide … D59Y
# Procedure: as §1, §2
# ApoC3 peptide … F64Y = target: T23, ApoC3 peptide … F64Y
# Procedure: as §1, §2
binder,measurement,setting,value
"anti-ApoC3 antibody 6A6 (antibody, V domains shown, it was detected with goat anti-human IgG (Fc); also called mAb 6A6; llama antibody 6A6) VH: EVQLVESGGGLVQPGGSLRLSCAASGFTFSSYAGRWVRQVPGKGLEWVSSINAGGGSTSYADSVKGRFTISRDNAKNTLYLQMNSLKPEDTAKYYCTQNSYRYWGQGTRVAVSS VL: DVVLTQTPGSLSVVPGESASISCKASQSLIHTDGKTYLYWLLQKPGQRPQLLIYQVSSHESGVPDRFTGSGSGTDFTLKISGVKAEDAGVYYCAQATYNPRTFGQGTKLEIK",% of binding to wild-type peptide,ApoC3 peptide … W65A,26.4%
same,% of binding to wild-type peptide,ApoC3 peptide … D68A,0%
same,% of binding to wild-type peptide,ApoC3 peptide … S62C,10.4%
same,% of binding to wild-type peptide,ApoC3 peptide … F64C,76.4%
same,% of binding to wild-type peptide,ApoC3 peptide … S62D,35%
same,% of binding to wild-type peptide,ApoC3 peptide … V71D,223%
same,% of binding to wild-type peptide,ApoC3 peptide … S62E,70.7%
same,% of binding to wild-type peptide,ApoC3 peptide … W65E,168%
same,% of binding to wild-type peptide,ApoC3 peptide … K60F,83.7%
same,% of binding to wild-type peptide,ApoC3 peptide … D59H,85.8%
same,% of binding to wild-type peptide,ApoC3 peptide … S62H,26.5%
same,% of binding to wild-type peptide,ApoC3 peptide … F64H,107%
same,% of binding to wild-type peptide,ApoC3 peptide … W65H,17%
same,% of binding to wild-type peptide,ApoC3 peptide … V71H,75.9%
same,% of binding to wild-type peptide,ApoC3 peptide … W65I,20.3%
same,% of binding to wild-type peptide,ApoC3 peptide … E70K,0%
same,% of binding to wild-type peptide,ApoC3 peptide … V71K,58.7%
same,% of binding to wild-type peptide,ApoC3 peptide … W65L,18.5%
same,% of binding to wild-type peptide,ApoC3 peptide … F61M,56.5%
same,% of binding to wild-type peptide,ApoC3 peptide … E63M,43.5%
same,% of binding to wild-type peptide,ApoC3 peptide … V71M,105%
same,% of binding to wild-type peptide,ApoC3 peptide … E70N,0.15%
same,% of binding to wild-type peptide,ApoC3 peptide … E70P,2.53%
same,% of binding to wild-type peptide,ApoC3 peptide … E63R,5.31%
same,% of binding to wild-type peptide,ApoC3 peptide … P69R,17.4%
same,% of binding to wild-type peptide,ApoC3 peptide … F64S,196%
same,% of binding to wild-type peptide,ApoC3 peptide … W65S,132%
same,% of binding to wild-type peptide,ApoC3 peptide … D66S,0%
same,% of binding to wild-type peptide,ApoC3 peptide … D59T,101%
same,% of binding to wild-type peptide,ApoC3 peptide … W65T,105%
same,% of binding to wild-type peptide,ApoC3 peptide … W65V,24%
same,% of binding to wild-type peptide,ApoC3 peptide … F61W,32.9%
same,% of binding to wild-type peptide,ApoC3 peptide … E63W,1.91%
same,% of binding to wild-type peptide,ApoC3 peptide … D66W,0%
same,% of binding to wild-type peptide,ApoC3 peptide … L67W,1.26%
same,% of binding to wild-type peptide,ApoC3 peptide … D59Y,70.2%
same,% of binding to wild-type peptide,ApoC3 peptide … F64Y,86.4%
